PMC5371819, “Structural intermediates and directionality of the swiveling motion of Pyruvate Phosphate Dikinase” (Scientific Reports, 2017)

Biological target: the molecule itself
Experiment: crystal structure; FtPPDK 10 mg/mL co-crystallized with 20 mM PEP and 10 mM NADH, microbatch, 17% PEG 3350, 100 mM MOPS pH 7, 100 mM magnesium formate, 21 °C; PDB 5JVJ, two monomers in the ASU

B1: Pyruvate phosphate dikinase from Flaveria trinervia (C4-isoform) (enzyme, UniProt P22221 78-953, looked up)
chain: TAKKRVFTFGKGRSEGNRDMKSLLGGKGANLAEMSSIGLSVPPGLTISTEACEEYQQNGKSLPPGLWDEISEGLDYVQKEMSASLGDPSKPLLLSVRSGAAISMPGMMDTVLNLGLNDEVVAGLAGKSGARFAYDSYRRFLDMFGNVVMGIPHSLFDEKLEQMKAEKGIHLDTDLTAADLKDLVEKYKNVYVEAKGEKFPTDPKKQLELAVNAVFDSWDSPRANKYRSINQITGLKGTAVNIQSMVFGNMGNTSGTGVLFTRNPSTGEKKLYGEFLINAQGEDVVAGIRTPEDLGTMETCMPEAYKELVENCEILERHYKDMMDIEFTVQENRLWMLQCRTGKRTGKGAVRIAVDMVNEGLIDTRTAIKRVETQHLDQLLHPQFEDPSAYKSHVVATGLPASPGAAVGQVCFSAEDAETWHAQGKSAILVRTETSPEDVGGMHAAAGILTARGGMTSHAAVVARGWGKCCVSGCADIRVNDDMKIFTIGDRVIKEGDWLSLNGTTGEVILGKQLLAPPAMSNDLEIFMSWADQARRLKVMANADTPNDALTARNNGAQGIGLCRTEHMFFASDERIKAVRKMIMAVTPEQRKVALDLLLPYQRSDFEGIFRAMDGLPVTIRLLDPPLHEFLPEGDLEHIVNELAVDTGMSADEIYSKIENLSEVNPMLGFRGCRLGISYPELTEMQVRAIFQAAVSMTNQGVTVIPEIMVPLVGTPQELRHQISVIRGVAANVFAEMGVTLEYKVGTMIEIPRAALIAEEIGKEADFFSFGTNDLTQMTFGYSRDDVGKFLQIYLAQGILQHDPFEVIDQKGVGQLIKMATEKGRAANPSLKVGICGEHGGEPSSVAFFDGVGLDYVSCSPFRVPIARLAAAQVIV
notes: domains NBD aa 1-340, CD aa 380-515, PBD aa 535-874; Cloned into pET-16b with a histidine10 tag and a TEV site; Co-crystallized with PEP and NADH (5JVJ) or PEP and 2'-Br-dAppNHp (5JVL); also called FtPPDK; C4-PPDK
Q: Does B1 bind?
A: binds
